Structures can show the parent of a compound that is named as a salt. Where two headings read alike, the source gives them in different places. One block for each molecule: values may come before it. Square brackets hold non-standard residues; d marks the D form. Ends that are not written are not given here. pY = N[C@@H](Cc1ccc(OP(=O)(O)O)cc1)C(=O)O
Tests used:
[1] = target: T1, DLAR D1 (Drosophila melanogaster, UniProt P16621); assay: PNC binding by fluorescence quenching, DLAR D1
T1 construct: DLAR 1448-1746; His tag (pET-15b or pET-22b); made in house; host or cells: E. coli BL21(DE3)
T1 sequence (P16621 1448-1746): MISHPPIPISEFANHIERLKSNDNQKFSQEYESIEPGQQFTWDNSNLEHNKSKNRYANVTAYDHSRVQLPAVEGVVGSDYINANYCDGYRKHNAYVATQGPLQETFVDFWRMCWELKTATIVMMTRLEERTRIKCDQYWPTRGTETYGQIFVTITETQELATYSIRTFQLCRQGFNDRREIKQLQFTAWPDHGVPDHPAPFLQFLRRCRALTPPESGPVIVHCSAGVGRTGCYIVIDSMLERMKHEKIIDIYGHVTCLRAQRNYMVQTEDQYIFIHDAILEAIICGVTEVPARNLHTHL
Experimental: (§1) 5.0 µM of recombinant protein was titrated with increasing concentrations of PNC (Sigma-Aldrich) in 25 mM citrate buffer pH 6.5, 100 mM NaCl and 2 mM DTT. The closing of the WPD loop leads to the quenching of the intrinsic tryptophan fluorescence. Fluorescence quenching was monitored at 350 nm (emission maximum) for recombinant PTP domains and the dissociation constants were calculated by fitting the data to a hyperbolic equation of ligand binding using the nonlinear regression modules of Sigma Plot software (Systat Software Inc.).
(§2) To evaluate the differences in the phosphotyrosine binding pockets of the two domains of DLAR and PTP99A, a small molecule probe para-Nitrocatecholsulfate (2-hydroxy-5-nitrophenyl sulfate; PNC) was used. PNC acts as a small molecule competitive inhibitor of the PTPs as it mimics the phosphotyrosine residue. PNC binding was evaluated by monitoring the fluorescence quenching of the tryptophan residues in the WPD loop. […] PNC binding to the DLAR D1D2 construct fitted well to the independent ligand binding model for two non-interacting sites.

[2] = target: T2, DLAR D2 (Drosophila melanogaster, UniProt P16621); assay: PNC binding by fluorescence quenching, DLAR D2; conditions: 5.0 µM protein, 25 mM citrate pH 6.5; fluorescence quenching 350 nm; single site model
T2 construct: DLAR 1728-2029; His tag (pET-15b or pET-22b); made in house; host or cells: E. coli BL21(DE3)
T2 sequence (P16621 1728-2029): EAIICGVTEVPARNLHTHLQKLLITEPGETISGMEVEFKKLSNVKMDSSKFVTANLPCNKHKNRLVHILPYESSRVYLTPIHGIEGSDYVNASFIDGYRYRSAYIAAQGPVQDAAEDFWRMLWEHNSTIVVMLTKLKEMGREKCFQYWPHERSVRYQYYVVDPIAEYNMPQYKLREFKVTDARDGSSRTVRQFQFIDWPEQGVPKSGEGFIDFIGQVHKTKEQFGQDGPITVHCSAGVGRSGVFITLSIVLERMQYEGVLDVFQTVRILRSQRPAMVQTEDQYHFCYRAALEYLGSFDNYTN
Experimental: as §1, §2

[3] = target: T3, DLAR D1D2 (Drosophila melanogaster, UniProt P16621); assay: PNC binding by fluorescence quenching, DLAR D1D2; conditions: 5.0 µM protein, 25 mM citrate pH 6.5, fluorescence quenching 350 nm, independent two site model
T3 construct: DLAR 1448-2029; His tag (pET-15b or pET-22b); made in house; host or cells: E. coli BL21(DE3)
T3 sequence (P16621 1448-2029): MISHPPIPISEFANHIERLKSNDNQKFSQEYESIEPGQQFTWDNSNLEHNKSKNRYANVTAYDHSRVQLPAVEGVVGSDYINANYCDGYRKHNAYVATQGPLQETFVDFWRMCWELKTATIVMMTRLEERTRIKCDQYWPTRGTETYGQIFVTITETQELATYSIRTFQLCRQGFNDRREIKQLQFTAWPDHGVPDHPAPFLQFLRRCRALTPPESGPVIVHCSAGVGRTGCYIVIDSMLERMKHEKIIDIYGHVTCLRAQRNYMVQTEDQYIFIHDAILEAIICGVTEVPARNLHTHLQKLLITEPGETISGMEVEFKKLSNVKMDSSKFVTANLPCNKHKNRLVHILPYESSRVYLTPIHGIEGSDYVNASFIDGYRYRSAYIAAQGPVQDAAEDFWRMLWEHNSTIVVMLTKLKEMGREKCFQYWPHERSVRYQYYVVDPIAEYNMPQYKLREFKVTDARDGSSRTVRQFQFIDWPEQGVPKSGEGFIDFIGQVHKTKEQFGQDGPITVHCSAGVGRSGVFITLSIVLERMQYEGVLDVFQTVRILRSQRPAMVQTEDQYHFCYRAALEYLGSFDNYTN
Experimental: as §1, §2

[4] = target: T4, PTP99A D2 (Drosophila melanogaster, UniProt P35832); assay: PNC binding by fluorescence quenching, PTP99A D2
T4 sequence (P35832 740-1050): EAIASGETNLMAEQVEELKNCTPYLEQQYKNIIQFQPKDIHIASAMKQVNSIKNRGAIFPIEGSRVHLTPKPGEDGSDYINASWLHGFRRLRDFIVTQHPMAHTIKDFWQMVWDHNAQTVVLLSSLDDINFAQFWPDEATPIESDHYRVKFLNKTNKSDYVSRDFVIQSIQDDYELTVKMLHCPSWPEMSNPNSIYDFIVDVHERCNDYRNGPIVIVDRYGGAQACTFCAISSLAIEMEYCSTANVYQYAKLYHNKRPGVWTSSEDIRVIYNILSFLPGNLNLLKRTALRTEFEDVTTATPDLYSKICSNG
Experimental: as §1, §2

[5] = target: T5, PTP99A D1D2 (Drosophila melanogaster, UniProt P35832); assay: PNC binding by fluorescence quenching, PTP99A D1D2; conditions: 5.0 µM protein, 25 mM citrate pH 6.5; fluorescence quenching 350 nm; independent two site model; read-out: Kd1
T5 sequence (P35832 450-1050): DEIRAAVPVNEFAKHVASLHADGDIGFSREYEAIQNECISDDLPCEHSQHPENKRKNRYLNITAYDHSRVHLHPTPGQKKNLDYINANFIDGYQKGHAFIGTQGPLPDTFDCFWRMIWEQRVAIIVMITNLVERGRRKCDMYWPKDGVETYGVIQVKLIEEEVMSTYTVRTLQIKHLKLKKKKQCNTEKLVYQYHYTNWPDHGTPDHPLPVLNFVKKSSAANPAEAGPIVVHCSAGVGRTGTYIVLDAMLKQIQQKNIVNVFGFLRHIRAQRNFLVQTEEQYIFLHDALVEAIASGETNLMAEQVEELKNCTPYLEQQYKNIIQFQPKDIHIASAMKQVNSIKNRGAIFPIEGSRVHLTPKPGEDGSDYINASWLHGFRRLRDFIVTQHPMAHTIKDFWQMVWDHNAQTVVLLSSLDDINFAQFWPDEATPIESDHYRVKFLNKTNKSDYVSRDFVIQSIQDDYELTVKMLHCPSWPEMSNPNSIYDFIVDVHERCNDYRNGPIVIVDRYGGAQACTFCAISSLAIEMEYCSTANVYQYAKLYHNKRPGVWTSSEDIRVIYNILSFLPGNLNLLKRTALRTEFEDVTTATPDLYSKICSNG
Experimental: as §1, §2

[6] = target: T6, PTP99A D1 (Drosophila melanogaster, UniProt P35832); assay: PNC binding by fluorescence quenching, PTP99A D1; design: PTP99A 450-756; His tag (pET-15b or pET-22b); made in house; host or cells: E. coli BL21(DE3)
T6 sequence (P35832 450-756): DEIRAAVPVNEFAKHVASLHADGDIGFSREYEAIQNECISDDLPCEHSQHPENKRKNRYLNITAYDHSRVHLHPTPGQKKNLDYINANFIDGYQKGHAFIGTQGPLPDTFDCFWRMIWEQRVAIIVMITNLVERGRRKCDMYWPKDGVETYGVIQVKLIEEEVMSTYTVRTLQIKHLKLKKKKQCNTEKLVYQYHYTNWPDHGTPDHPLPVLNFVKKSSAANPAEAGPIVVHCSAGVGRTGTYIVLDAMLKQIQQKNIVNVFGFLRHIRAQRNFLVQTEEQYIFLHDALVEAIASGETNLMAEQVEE
Experimental: as §1, §2

[7] = target: DLAR D1 (membrane-proximal PTP domain of DLAR) (Drosophila melanogaster); assay: SPR; Biacore-2000; DLAR PTP domains immobilised on CM5 chips by amine coupling; peptides as analyte at 50-700 µM; 25°C; 10 mM HEPES pH 8.0, 150 mM NaCl, 10 mM DTT, 3 mM EDTA; 5 µL/min; two independent sites fit for the double domain constructs, single-site fit for DLAR D1 and DLAR D2
[8] = target: DLAR D1D2 (tandem PTP domains of Drosophila Leukocyte antigen Related) (Drosophila melanogaster); assay: as above
[9] = target: DLAR D1D2HSS (Cys to Ser mutation in the D2 domain) (Drosophila melanogaster); assay: as above
[10] = target: DLAR D1HSS D2 (Cys to Ser mutation in the D1 domain) (Drosophila melanogaster); assay: as above
[11] = target: DLAR D2 (membrane-distal PTP domain of DLAR) (Drosophila melanogaster); assay: as above
[12] = 5.0 µM protein, 25 mM citrate pH 6.5, fluorescence quenching 350 nm, single site model

Molecule: O=[N+]([O-])c1ccc(O)c(OS(=O)(=O)O)c1 [PNC, 2-hydroxy-5-nitrophenyl sulfate]
Kd ([1]; 5.0 µM protein, 25 mM citrate buffer pH 6.5, 100 mM NaCl, 2 mM DTT, tryptophan fluorescence quenching 350 nm, single site model): 235 µM
relative PNC binding ([1]; two PTP domains of DLAR (D1 and D2) compared, fluorescence quenching): comparable affinities
Kd [2]: 214 µM
Kd ([3]; read-out: Kd1): 160 µM
Kd ([3]; read-out: Kd2): 173 µM
Kd [4, 12]: 716 µM
relative PNC binding ([4]; D2 domain of PTP99A compared to the other PTP domains, fluorescence quenching): much more poorly
Kd [5]: 94.8 µM
Kd [6, 12]: 153 µM
relative PNC binding ([6]; D1 domain of PTP99A alone, fluorescence quenching): four times more favorable

Kd [7]: 94.6 µM
koff [7]: 0.00176 s⁻¹
kon [7]: 18.6 M⁻¹ s⁻¹
KD, first binding site [8]: 313 µM
KD, second binding site [8]: 2.02 µM
ka, first binding site [8]: 32.6 M⁻¹ s⁻¹
ka, second binding site [8]: 16500 M⁻¹ s⁻¹
kd, first binding site [8]: 0.0102 s⁻¹
kd, second binding site [8]: 0.0333 s⁻¹
KD, first binding site [9]: 296 µM
KD, second binding site [9]: 9.43 µM
ka, first binding site [9]: 51.7 M⁻¹ s⁻¹
ka, second binding site [9]: 1.37 M⁻¹ s⁻¹
kd, first binding site [9]: 0.0153 s⁻¹
kd, second binding site [9]: 1.3e-05 s⁻¹
KD, first binding site [10]: 87.5 µM
KD, second binding site [10]: 1.87 µM
ka, first binding site [10]: 74.7 M⁻¹ s⁻¹
ka, second binding site [10]: 28800 M⁻¹ s⁻¹
kd, first binding site [10]: 0.00654 s⁻¹
kd, second binding site [10]: 0.054 s⁻¹
Kd [11]: 104 µM
koff [11]: 0.00552 s⁻¹
kon [11]: 52.8 M⁻¹ s⁻¹
Molecule: TAEPD[pY]GALYE [Cuticle Peptide TAEPD(pY)GALYE]

Reference: publication PMC3172300, “Modulation of Catalytic Activity in Multi-Domain Protein Tyrosine Phosphatases” (PLoS ONE, 2011)
